T1: orthogonal hCD122 receptor (hoRb), hCD122 with H133D and Y134F (human, UniProt P14784 27-550)
T1 sequence: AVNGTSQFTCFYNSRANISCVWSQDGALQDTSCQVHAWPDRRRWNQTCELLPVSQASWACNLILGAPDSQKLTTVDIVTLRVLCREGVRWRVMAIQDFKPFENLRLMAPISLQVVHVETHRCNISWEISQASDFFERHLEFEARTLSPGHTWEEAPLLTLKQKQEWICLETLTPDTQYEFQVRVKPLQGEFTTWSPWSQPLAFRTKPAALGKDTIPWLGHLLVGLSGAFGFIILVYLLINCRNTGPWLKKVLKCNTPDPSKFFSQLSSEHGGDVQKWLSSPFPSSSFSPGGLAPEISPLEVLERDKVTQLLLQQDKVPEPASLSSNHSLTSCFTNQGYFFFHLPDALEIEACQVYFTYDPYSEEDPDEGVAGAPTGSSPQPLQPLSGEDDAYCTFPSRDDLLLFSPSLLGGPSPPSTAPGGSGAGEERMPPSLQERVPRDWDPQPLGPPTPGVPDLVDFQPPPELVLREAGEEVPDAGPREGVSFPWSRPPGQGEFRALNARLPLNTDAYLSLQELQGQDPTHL


Columns and labels:
[1] = molecular target: T1, orthogonal hCD122 receptor (hoRb), …; assay: cell-based or functional assay
[2] = molecular target: T1, orthogonal hCD122 receptor (hoRb), …; assay: cell-based or functional assay; remark: listed apart in the source
Throughout, for Relative Proliferation Fold Change 3F8 1:10: reference of the scale not given here.
Throughout, for Relative Proliferation Fold Change 3F8 1:2: reference of the scale not given here.
Throughout, for Relative Proliferation Fold Change 3F8 1:50: reference of the scale not given here.
Throughout, for Relative Proliferation Fold Change NKL 1:10: reference of the scale not given here.
Throughout, for Relative Proliferation Fold Change NKL 1:2: reference of the scale not given here.
Throughout, for Relative Proliferation Fold Change NKL 1:50: reference of the scale not given here.

Binder | NKL Ortho Proliferation Signal 1:2 [1] | NKL Ortho Proliferation Signal 1:10 [1] | NKL Ortho Proliferation Signal 1:50 [1] | Relative Proliferation Fold Change NKL 1:2 [1] [fold] | Relative Proliferation Fold Change NKL 1:10 [1] [fold] | Relative Proliferation Fold Change NKL 1:50 [1] [fold] | 3F8 Ortho Proliferation Signal 1:2 [2] [cts/min] | 3F8 Ortho Proliferation Signal 1:10 [2] [cts/min] | 3F8 Ortho Proliferation Signal 1:50 [2] [cts/min] | Relative Proliferation Fold Change 3F8 1:2 [2] [fold] | Relative Proliferation Fold Change 3F8 1:10 [2] [fold] | Relative Proliferation Fold Change 3F8 1:50 [2] [fold]
T3G, SQVLKA (ligand) APGSSSTKKTQLQLSQLLVLLKAILNGINNYKNPKLTRMLTFKFYMPKKATELKHLQCLEEELKPLEEVLNLAQSKNFHLRPRDLISNINVIVLELKGSETTFMCEYADETATIVEFLNRWITFCQSIISTLT | 58900 | 66900 | 32200 | 3.94 | 3.76 | 1.92 | 31800 | 24400 | 9460 | 20.4 | 19.4 | 7.14
T3N, SQVLKA (ligand) APNSSSTKKTQLQLSQLLVLLKAILNGINNYKNPKLTRMLTFKFYMPKKATELKHLQCLEEELKPLEEVLNLAQSKNFHLRPRDLISNINVIVLELKGSETTFMCEYADETATIVEFLNRWITFCQSIISTLT | 62400 | 65700 | 31400 | 3.87 | 3.32 | 1.77 | 34200 | 27200 | 9790 | 2.07 | 2.99 | 4.1
T3P, SQVLKA (ligand) APPSSSTKKTQLQLSQLLVLLKAILNGINNYKNPKLTRMLTFKFYMPKKATELKHLQCLEEELKPLEEVLNLAQSKNFHLRPRDLISNINVIVLELKGSETTFMCEYADETATIVEFLNRWITFCQSIISTLT | 55400 | 56900 | 32700 | 6.03 | 4.91 | 2.9 | 36500 | 39700 | 19000 | 33.9 | 42.8 | 38.5
T3K, SQVLKA (ligand) APKSSSTKKTQLQLSQLLVLLKAILNGINNYKNPKLTRMLTFKFYMPKKATELKHLQCLEEELKPLEEVLNLAQSKNFHLRPRDLISNINVIVLELKGSETTFMCEYADETATIVEFLNRWITFCQSIISTLT | 42900 | 35500 | 18400 | 3.47 | 2.47 | 1.38 | 28900 | 15100 | 7150 | 50.9 | 7.35 | 9.24

Further lines, results first:

NKL Ortho Proliferation Signal 1:2 [1] | NKL Ortho Proliferation Signal 1:10 [1] | NKL Ortho Proliferation Signal 1:50 [1] | Relative Proliferation Fold Change NKL 1:2 [1] [fold] | Relative Proliferation Fold Change NKL 1:10 [1] [fold] | Relative Proliferation Fold Change NKL 1:50 [1] [fold] | 3F8 Ortho Proliferation Signal 1:2 [2] [cts/min] | 3F8 Ortho Proliferation Signal 1:10 [2] [cts/min] | 3F8 Ortho Proliferation Signal 1:50 [2] [cts/min] | Relative Proliferation Fold Change 3F8 1:2 [2] [fold] | Relative Proliferation Fold Change 3F8 1:10 [2] [fold] | Relative Proliferation Fold Change 3F8 1:50 [2] [fold] | Binder
65300 | 73700 | 34800 | 4.19 | 4.03 | 1.93 | 39200 | 32200 | 14200 | 68.3 | 28.2 | 17.2 | T3Q, SQVLKA (ligand) APQSSSTKKTQLQLSQLLVLLKAILNGINNYKNPKLTRMLTFKFYMPKKATELKHLQCLEEELKPLEEVLNLAQSKNFHLRPRDLISNINVIVLELKGSETTFMCEYADETATIVEFLNRWITFCQSIISTLT
49800 | 53900 | 27900 | 4.09 | 4.03 | 2.34 | 33400 | 35000 | 13400 | 35.1 | 18.6 | 19 | T3D, SQVLKA (ligand) APDSSSTKKTQLQLSQLLVLLKAILNGINNYKNPKLTRMLTFKFYMPKKATELKHLQCLEEELKPLEEVLNLAQSKNFHLRPRDLISNINVIVLELKGSETTFMCEYADETATIVEFLNRWITFCQSIISTLT
58400 | 40700 | 19300 | 4.15 | 2.9 | 1.45 | 28900 | 16800 | 5980 | 8.43 | 13.3 | 5.3 | T3R, SQVLKA (ligand) APRSSSTKKTQLQLSQLLVLLKAILNGINNYKNPKLTRMLTFKFYMPKKATELKHLQCLEEELKPLEEVLNLAQSKNFHLRPRDLISNINVIVLELKGSETTFMCEYADETATIVEFLNRWITFCQSIISTLT
68600 | 75000 | 37400 | 3.97 | 3.86 | 2.06 | 36100 | 36200 | 18900 | 20.8 | 45.5 | 16 | T3E, SQVLKA (ligand) APESSSTKKTQLQLSQLLVLLKAILNGINNYKNPKLTRMLTFKFYMPKKATELKHLQCLEEELKPLEEVLNLAQSKNFHLRPRDLISNINVIVLELKGSETTFMCEYADETATIVEFLNRWITFCQSIISTLT

From patent US20210196796A1 (SYNTHEKINE, published 2021)
